Laboratory results taken from the supplement of paper PMC11811203.

B1: THAP1; numbered along this chain (parent)
chain: MVQSCSAYGCKNRYDKDKPVSFHKFPLTRPSLCKEWEAAVRRKNFKPTKYSSICSEHFTPDCFKRECNNKLLKENAVPTIFLCTEPHDKKEDLLEPQEQLPPPPLPPPVSQVDAAIGLLMPPLQTPVNLSVFCDHNYTVEDTMHQRKRIHQLEQQVEKLRKKLKTAQQRCRRQERQLEKLKEVVHFQKEKDDVSERGYVILPNDYFEIVEVPA

Variants of: B1
Test: THAP1 transcriptional activity (GFP+/GFP- enrichment relative to wild-type constructs) (ratio to WT); higher = more THAP1 activity (PSMB5 reporter activation)
Conditions: with PSMB5 promoter-GFP reporter
Method in brief: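 A lentiviral site-saturation library covering residues 2–213 of human THAP1, with each position changed to all 20 amino acids, was transduced in duplicate at MOI ~0.3 into THAP1-knockout HEK-293T cells with mClover3 knocked in at endogenous PSMB5. Five days later, BFP+ cells were sorted into GFP-dim and GFP-bright bins and variants were counted by Illumina sequencing of genomic DNA amplicons. Activity is the bright/dim read fold change averaged over replicates and divided by the mean of wild-type synonymous constructs.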

Variant	THAP1 transcriptional activity
MVQSCSAYGCKNRYDKDKPVSFHKFPLTRPSLCKEWEAAVRRKNFKPTKYSSICSEHFTPDCFKRECNNKLLKENAVPTIFLCTEPHDKKEDLLEPQEQLPPPPLVPPVSQVDAAIGLLMPPLQTPVNLSVFCDHNYTVEDTMHQRKRIHQLEQQVEKLRKKLKTAQQRCRRQERQLEKLKEVVHFQKEKDDVSERGYVILPNDYFEIVEVPA [P106V]	1.39
MVQSCSAYGCKNRYDKDKPVSFHKFPLTRPSLCKEWEAAVRRKNFKPTKYSSICSEHFTPDCFKRECNNKLLKENAVPTIFLCTEPHDKKEDLLEPQEQLPPPPLDPPVSQVDAAIGLLMPPLQTPVNLSVFCDHNYTVEDTMHQRKRIHQLEQQVEKLRKKLKTAQQRCRRQERQLEKLKEVVHFQKEKDDVSERGYVILPNDYFEIVEVPA [P106D]	1.76
MVQSCSAYGCKNRYDKDKPVSFHKFPLTRPSLCKEWEAAVRRKNFKPTKYSSICSEHFTPDCFKRECNNKLLKENAVPTIFLCTEPHDKKEDLLEPQEQLPPPPLHPPVSQVDAAIGLLMPPLQTPVNLSVFCDHNYTVEDTMHQRKRIHQLEQQVEKLRKKLKTAQQRCRRQERQLEKLKEVVHFQKEKDDVSERGYVILPNDYFEIVEVPA [P106H]	0.72
MVQSCSAYGCKNRYDKDKPVSFHKFPLTRPSLCKEWEAAVRRKNFKPTKYSSICSEHFTPDCFKRECNNKLLKENAVPTIFLCTEPHDKKEDLLEPQEQLPPPPLLPPVSQVDAAIGLLMPPLQTPVNLSVFCDHNYTVEDTMHQRKRIHQLEQQVEKLRKKLKTAQQRCRRQERQLEKLKEVVHFQKEKDDVSERGYVILPNDYFEIVEVPA [P106L]	0.994
MVQSCSAYGCKNRYDKDKPVSFHKFPLTRPSLCKEWEAAVRRKNFKPTKYSSICSEHFTPDCFKRECNNKLLKENAVPTIFLCTEPHDKKEDLLEPQEQLPPPPLNPPVSQVDAAIGLLMPPLQTPVNLSVFCDHNYTVEDTMHQRKRIHQLEQQVEKLRKKLKTAQQRCRRQERQLEKLKEVVHFQKEKDDVSERGYVILPNDYFEIVEVPA [P106N]	1.89
MVQSCSAYGCKNRYDKDKPVSFHKFPLTRPSLCKEWEAAVRRKNFKPTKYSSICSEHFTPDCFKRECNNKLLKENAVPTIFLCTEPHDKKEDLLEPQEQLPPPPLWPPVSQVDAAIGLLMPPLQTPVNLSVFCDHNYTVEDTMHQRKRIHQLEQQVEKLRKKLKTAQQRCRRQERQLEKLKEVVHFQKEKDDVSERGYVILPNDYFEIVEVPA [P106W]	0.703
MVQSCSAYGCKNRYDKDKPVSFHKFPLTRPSLCKEWEAAVRRKNFKPTKYSSICSEHFTPDCFKRECNNKLLKENAVPTIFLCTEPHDKKEDLLEPQEQLPPPPLSPPVSQVDAAIGLLMPPLQTPVNLSVFCDHNYTVEDTMHQRKRIHQLEQQVEKLRKKLKTAQQRCRRQERQLEKLKEVVHFQKEKDDVSERGYVILPNDYFEIVEVPA [P106S]	2.1
MVQSCSAYGCKNRYDKDKPVSFHKFPLTRPSLCKEWEAAVRRKNFKPTKYSSICSEHFTPDCFKRECNNKLLKENAVPTIFLCTEPHDKKEDLLEPQEQLPPPPLKPPVSQVDAAIGLLMPPLQTPVNLSVFCDHNYTVEDTMHQRKRIHQLEQQVEKLRKKLKTAQQRCRRQERQLEKLKEVVHFQKEKDDVSERGYVILPNDYFEIVEVPA [P106K]	1.89
MVQSCSAYGCKNRYDKDKPVSFHKFPLTRPSLCKEWEAAVRRKNFKPTKYSSICSEHFTPDCFKRECNNKLLKENAVPTIFLCTEPHDKKEDLLEPQEQLPPPPLFPPVSQVDAAIGLLMPPLQTPVNLSVFCDHNYTVEDTMHQRKRIHQLEQQVEKLRKKLKTAQQRCRRQERQLEKLKEVVHFQKEKDDVSERGYVILPNDYFEIVEVPA [P106F]	0.72
MVQSCSAYGCKNRYDKDKPVSFHKFPLTRPSLCKEWEAAVRRKNFKPTKYSSICSEHFTPDCFKRECNNKLLKENAVPTIFLCTEPHDKKEDLLEPQEQLPPPPLTPPVSQVDAAIGLLMPPLQTPVNLSVFCDHNYTVEDTMHQRKRIHQLEQQVEKLRKKLKTAQQRCRRQERQLEKLKEVVHFQKEKDDVSERGYVILPNDYFEIVEVPA [P106T]	1.33
MVQSCSAYGCKNRYDKDKPVSFHKFPLTRPSLCKEWEAAVRRKNFKPTKYSSICSEHFTPDCFKRECNNKLLKENAVPTIFLCTEPHDKKEDLLEPQEQLPPPPLMPPVSQVDAAIGLLMPPLQTPVNLSVFCDHNYTVEDTMHQRKRIHQLEQQVEKLRKKLKTAQQRCRRQERQLEKLKEVVHFQKEKDDVSERGYVILPNDYFEIVEVPA [P106M]	1.23
MVQSCSAYGCKNRYDKDKPVSFHKFPLTRPSLCKEWEAAVRRKNFKPTKYSSICSEHFTPDCFKRECNNKLLKENAVPTIFLCTEPHDKKEDLLEPQEQLPPPPLRPPVSQVDAAIGLLMPPLQTPVNLSVFCDHNYTVEDTMHQRKRIHQLEQQVEKLRKKLKTAQQRCRRQERQLEKLKEVVHFQKEKDDVSERGYVILPNDYFEIVEVPA [P106R]	1.58
MVQSCSAYGCKNRYDKDKPVSFHKFPLTRPSLCKEWEAAVRRKNFKPTKYSSICSEHFTPDCFKRECNNKLLKENAVPTIFLCTEPHDKKEDLLEPQEQLPPPPLCPPVSQVDAAIGLLMPPLQTPVNLSVFCDHNYTVEDTMHQRKRIHQLEQQVEKLRKKLKTAQQRCRRQERQLEKLKEVVHFQKEKDDVSERGYVILPNDYFEIVEVPA [P106C]	1.25
MVQSCSAYGCKNRYDKDKPVSFHKFPLTRPSLCKEWEAAVRRKNFKPTKYSSICSEHFTPDCFKRECNNKLLKENAVPTIFLCTEPHDKKEDLLEPQEQLPPPPLEPPVSQVDAAIGLLMPPLQTPVNLSVFCDHNYTVEDTMHQRKRIHQLEQQVEKLRKKLKTAQQRCRRQERQLEKLKEVVHFQKEKDDVSERGYVILPNDYFEIVEVPA [P106E]	2.61
MVQSCSAYGCKNRYDKDKPVSFHKFPLTRPSLCKEWEAAVRRKNFKPTKYSSICSEHFTPDCFKRECNNKLLKENAVPTIFLCTEPHDKKEDLLEPQEQLPPPPLYPPVSQVDAAIGLLMPPLQTPVNLSVFCDHNYTVEDTMHQRKRIHQLEQQVEKLRKKLKTAQQRCRRQERQLEKLKEVVHFQKEKDDVSERGYVILPNDYFEIVEVPA [P106Y]	1.49
MVQSCSAYGCKNRYDKDKPVSFHKFPLTRPSLCKEWEAAVRRKNFKPTKYSSICSEHFTPDCFKRECNNKLLKENAVPTIFLCTEPHDKKEDLLEPQEQLPPPPLIPPVSQVDAAIGLLMPPLQTPVNLSVFCDHNYTVEDTMHQRKRIHQLEQQVEKLRKKLKTAQQRCRRQERQLEKLKEVVHFQKEKDDVSERGYVILPNDYFEIVEVPA [P106I]	1.07
MVQSCSAYGCKNRYDKDKPVSFHKFPLTRPSLCKEWEAAVRRKNFKPTKYSSICSEHFTPDCFKRECNNKLLKENAVPTIFLCTEPHDKKEDLLEPQEQLPPPPLPFPVSQVDAAIGLLMPPLQTPVNLSVFCDHNYTVEDTMHQRKRIHQLEQQVEKLRKKLKTAQQRCRRQERQLEKLKEVVHFQKEKDDVSERGYVILPNDYFEIVEVPA [P107F]	0.519
MVQSCSAYGCKNRYDKDKPVSFHKFPLTRPSLCKEWEAAVRRKNFKPTKYSSICSEHFTPDCFKRECNNKLLKENAVPTIFLCTEPHDKKEDLLEPQEQLPPPPLPGPVSQVDAAIGLLMPPLQTPVNLSVFCDHNYTVEDTMHQRKRIHQLEQQVEKLRKKLKTAQQRCRRQERQLEKLKEVVHFQKEKDDVSERGYVILPNDYFEIVEVPA [P107G]	1.11
MVQSCSAYGCKNRYDKDKPVSFHKFPLTRPSLCKEWEAAVRRKNFKPTKYSSICSEHFTPDCFKRECNNKLLKENAVPTIFLCTEPHDKKEDLLEPQEQLPPPPLPMPVSQVDAAIGLLMPPLQTPVNLSVFCDHNYTVEDTMHQRKRIHQLEQQVEKLRKKLKTAQQRCRRQERQLEKLKEVVHFQKEKDDVSERGYVILPNDYFEIVEVPA [P107M]	1.29
MVQSCSAYGCKNRYDKDKPVSFHKFPLTRPSLCKEWEAAVRRKNFKPTKYSSICSEHFTPDCFKRECNNKLLKENAVPTIFLCTEPHDKKEDLLEPQEQLPPPPLPIPVSQVDAAIGLLMPPLQTPVNLSVFCDHNYTVEDTMHQRKRIHQLEQQVEKLRKKLKTAQQRCRRQERQLEKLKEVVHFQKEKDDVSERGYVILPNDYFEIVEVPA [P107I]	0.533
MVQSCSAYGCKNRYDKDKPVSFHKFPLTRPSLCKEWEAAVRRKNFKPTKYSSICSEHFTPDCFKRECNNKLLKENAVPTIFLCTEPHDKKEDLLEPQEQLPPPPLPEPVSQVDAAIGLLMPPLQTPVNLSVFCDHNYTVEDTMHQRKRIHQLEQQVEKLRKKLKTAQQRCRRQERQLEKLKEVVHFQKEKDDVSERGYVILPNDYFEIVEVPA [P107E]	1.58
MVQSCSAYGCKNRYDKDKPVSFHKFPLTRPSLCKEWEAAVRRKNFKPTKYSSICSEHFTPDCFKRECNNKLLKENAVPTIFLCTEPHDKKEDLLEPQEQLPPPPLPAPVSQVDAAIGLLMPPLQTPVNLSVFCDHNYTVEDTMHQRKRIHQLEQQVEKLRKKLKTAQQRCRRQERQLEKLKEVVHFQKEKDDVSERGYVILPNDYFEIVEVPA [P107A]	1.2
MVQSCSAYGCKNRYDKDKPVSFHKFPLTRPSLCKEWEAAVRRKNFKPTKYSSICSEHFTPDCFKRECNNKLLKENAVPTIFLCTEPHDKKEDLLEPQEQLPPPPLPLPVSQVDAAIGLLMPPLQTPVNLSVFCDHNYTVEDTMHQRKRIHQLEQQVEKLRKKLKTAQQRCRRQERQLEKLKEVVHFQKEKDDVSERGYVILPNDYFEIVEVPA [P107L]	1.74
MVQSCSAYGCKNRYDKDKPVSFHKFPLTRPSLCKEWEAAVRRKNFKPTKYSSICSEHFTPDCFKRECNNKLLKENAVPTIFLCTEPHDKKEDLLEPQEQLPPPPLPDPVSQVDAAIGLLMPPLQTPVNLSVFCDHNYTVEDTMHQRKRIHQLEQQVEKLRKKLKTAQQRCRRQERQLEKLKEVVHFQKEKDDVSERGYVILPNDYFEIVEVPA [P107D]	1.21
MVQSCSAYGCKNRYDKDKPVSFHKFPLTRPSLCKEWEAAVRRKNFKPTKYSSICSEHFTPDCFKRECNNKLLKENAVPTIFLCTEPHDKKEDLLEPQEQLPPPPLPKPVSQVDAAIGLLMPPLQTPVNLSVFCDHNYTVEDTMHQRKRIHQLEQQVEKLRKKLKTAQQRCRRQERQLEKLKEVVHFQKEKDDVSERGYVILPNDYFEIVEVPA [P107K]	1.6
MVQSCSAYGCKNRYDKDKPVSFHKFPLTRPSLCKEWEAAVRRKNFKPTKYSSICSEHFTPDCFKRECNNKLLKENAVPTIFLCTEPHDKKEDLLEPQEQLPPPPLPHPVSQVDAAIGLLMPPLQTPVNLSVFCDHNYTVEDTMHQRKRIHQLEQQVEKLRKKLKTAQQRCRRQERQLEKLKEVVHFQKEKDDVSERGYVILPNDYFEIVEVPA [P107H]	0.688
MVQSCSAYGCKNRYDKDKPVSFHKFPLTRPSLCKEWEAAVRRKNFKPTKYSSICSEHFTPDCFKRECNNKLLKENAVPTIFLCTEPHDKKEDLLEPQEQLPPPPLPNPVSQVDAAIGLLMPPLQTPVNLSVFCDHNYTVEDTMHQRKRIHQLEQQVEKLRKKLKTAQQRCRRQERQLEKLKEVVHFQKEKDDVSERGYVILPNDYFEIVEVPA [P107N]	0.608
MVQSCSAYGCKNRYDKDKPVSFHKFPLTRPSLCKEWEAAVRRKNFKPTKYSSICSEHFTPDCFKRECNNKLLKENAVPTIFLCTEPHDKKEDLLEPQEQLPPPPLPCPVSQVDAAIGLLMPPLQTPVNLSVFCDHNYTVEDTMHQRKRIHQLEQQVEKLRKKLKTAQQRCRRQERQLEKLKEVVHFQKEKDDVSERGYVILPNDYFEIVEVPA [P107C]	0.851
